Test results: a protein production outcome set (Wang et al. 2014)

Test: label from the status in PepcDB records
With “MGTIGKKAAKGASVKFSESSTQAVIKATYLQVFGRDVYEGQRLKVQEIKLENGEISVRDFVRALAKSDLFRKLYWTPFYVCKAIEYIHRRLLGRPTYGRQENNKYFDIASKKGLYAVVDAILDSLEYTETFGEDTVPYERYLTPAGLEHHHHHH” the protein production was “not failed”.
In the case of “MGTIILTWNIQWGRGADGRVDLSRMLAEARAMGSFDVLCLQEVTSGFGHLPGQPGEDQWQELAGALGQAFTLIDGIALERHEGAQIRRFGNAIATRLPVLHVARHALPCPADAGPTMPRMAIEAIVQAPFGPLRVVSTHLEYYSETQRIAQIDALRALHVEGCMRAAHPPTLGPEPTDGPFRPLAQTRATVICGDFNCKPDSKPKRLATVPFSHEAAALYDAWETAHGPTPQPPTFGVHDRTGWTEPAYACDFMLVSEPLKTRVTRVEVNSTTQASDHQPTLLELRDAE”, the protein production is reported as “failed”.
With “MGTIKIVTDSSITIEPELIKALDITVVPLSVMIDSKLYSDNDLKEEGHFLSLMKASKSLPKTSQPPVGLFAETYENLVKKGVTDIVAIHLSPALSGTIEASRQGAEIAEAPVTVLDSGFTDQAMKFQVVEAAKMAKAGASLNEILAAVQAIKSKTELYIGVSTLENLVKGGRIGRVTGVLSSLLNVKVVMALKNDELKTLVKGRGNKTFTKWLDSYLAKNSHRPIAEIAISYAGEASLALTLKERIAAYYNHSISVLETGSIIQTHTGEGAFAVMVRYE” the protein production was “not failed”.
In the case of “MGTPAERWERARMFFDAKDYAAAARVLDGLVAQVPEQTGPRLLLARSYYHSAQLRRAEAELRVVVERDPVEHYARLMLGRTLERQGRQEEADAQLRIASALAGLEHHHHHH”, the protein production is reported as “failed”.
With “MGTSDEEIDRLLGKLTPRARALLLNGATTWRTRAEPAVELRELVMSDGPAGVRGEAWDERSTSLLLPSASALAATWDEALVEDLGGLLAAEARRKGVDVLLAPTLNLHRSPLGGRHFECLSEDPELTGRIGAALVRGIQAHGVAATAKHYVANDSETDRLTVDVRVGERALREVYLAPFEAAVAAGVRLVMAGYNAVNGTTMTANALLTDPLKSEWGFDGVVVSDWGAVRGTTGTARAGLDLAMPGPDGPWGEALARAVAEGAVPEPAVDDKARRLLRLAAWLGALGGRDVSRSPVPGRPADSPGAEGADGGAGAGPSSGAEGLPGRGPAHGAKPSGPRPRRAGDGRALARRAVAAGAVLLANKDVLPLDPEHLGTVAVIGAHAARTRTQGGGSAGVFPRGEVSVLDGIRAELRGRARVVHVPGPRPDGPAPPLDPDTCTDPRSGLPGVLLRMLDADGRELYAERRRGGRLLEPRLVPGAHTVEIRARLCPRTGGSWSLGVAGFGRMSLTTDGRTLLEGDFPPSTDDPAVMHVNPPAQYATADLTAGRDTLLVARRELAPGTGRATVLVAAPPAPDVTASLAEAVRAAGAADAAVVVVGTTEHGESEGYDRTDLALGATQDALVRAVAAANPRTVAVVNSGGPVELPWREQAGAVLLAWFPGQEGGGGLADVLFGHAEPGGRLPTTWPAVLADAPVTRTRPDGGRLDYDEGLHLGHRGWLRHHRTPAYWFGHGLGYTTWRYEELTVPPVTRAGDGLTVRVRVRNTGARAGREVVQVYLARPASALDRPARWLAGYTAVRARPGETVTATVRVPARALRHWSVAEHAWRTEAGPCRVLAGRSAGDVPLAAEVEVVPTASA” the protein production was “failed”.
With “MGVATMVTDKYQKCIDACNRCSQACYECFKACLNEPDVNARRTCISILFECAQMCQMSSALMSMDAQFAIDHCKLCSVICDKCAQECSMFQDPHCQKCANECRTCSNECRMMSGMLEHHHHHH” the protein production was “not failed”.
In the case of “MGVLAEVYEMLNTCNRCGFCHTACKTYKVDGAETMVSRGRVQLIKAVADGVIEADADYEDSINSCLLCGECAVACPSGVSAKELVMAARRDLKLRHGLEHHHHHH”, the protein production is reported as “not failed”.
For “MGVLAEVYEMLNTCNRCGFCHTACKTYKVDGAETMVSRGRVQLIKAVADGVIEADADYEDSINSCLLCGECAVACPSGVSAKELVMAARRDLKLRHGVKPFVKSYALKTLANPNKLERAFKLFGGLGKNVLNKVDGMDYFRGVDIKGMNVAKVPFLNQVPERILVAQPKHKVAFYVGCFLNFSLDDTAHSVVKVLTKNDCEVIIPKEQVCCGLPQYAYGDFETAKVNARKTIDTFMAKDVEAIITACGSCAAMLKEDYLKLFADDAAYLPRVKSFCAKVKEFSEYMAEIGVDESKFHNSTPVKVTYHDPCHMVRGIKVTAQPRQMLKSLPRVEYIEMFEANRCCGASGLVQAFYHEMSTKVTREKAKNIQDSGAEVVATSCPACIMRLQGGVSMAGQKQKVMHVADLMAKAYEN”, the protein production was “failed”.
In the case of “MGVRLAVRCFVVDGVLIDTGAKSMENEFTSFFQQQDIDQVVITHFHEDHTGCAAFLQRSMGLPIYMNEPMIEYCRQKADYPLYRKIFWGKRDPFAAKPIGATFSSRNATWDVIPTPGHAIDHVVFLNRETGQLFSGDLYCQEKTKVILREEDIPTIIASLQHVLTYDFGDVFCAHAGYLPLEHHHHHH”, the protein production is reported as “failed”.
In the case of “MGVVLIDGSTVRSFVDDEEQFKKSVDERFAALDLNKDGVLSRSELRKAFESMRLLESHFGVDVVTPQDELTNLYDSIFEKFDTDQSGSVDLEEFRSEMKKIVLAIADGLGSCPITMVLDDDDDNFLKKAADLEASKLEKASS”, the protein production is reported as “failed”.
In the case of “MGVVRPAEQQSRIAARRVALLEKVDYRLAETPAEREAIYRLRYRAYLKEGAIDANSSGIVTDRYDDLPNSWIFGVFYEGELSSSLRITVASPDHHDCPSMDVFPDFLQPWLAEGKVIVDPTRFVADPTSANRLPELPYLTLRLAYVSCEYFNADIGLASVRTEHQAFYRRVMMRS”, the protein production is reported as “failed”.
With “MGWQTLKQQSVPARKRLLYLHIPFCATHCTFCGFYQNKLRDDSTATYTRYLLQELAMEADSPLHQSAPIHAVYFGGGTPTALAADELSQIIRAIRTSLPLAPDCEITVEGRAMDFDDERIDACLDAGANRFSIGIQTFDTRIRQRMARTSDKQQSIRFLERLCGRDRAAVVCDLMFGLPGQTPEIWREDLAIVSDLPLDGVDLYALNLLPTTPLAKAAENQRVALPDVVARRDFYRTGAAFLADSGWHQLSNSHWARTTRERNLYNLLIKQGADCLAMGSGAGGNINGQAYMMERSLERYYQQIDQGQKPIMMMTPASSTGPWQHQLQAGIEVGRIKLPQLTQHARELQPLLSQWHQAGLTCDDSTCLRLTNDGRFWANNLMQALQQIIPQLNAEEHAHLEHHHHHH” the protein production was “failed”.
In the case of “MGYFYVLLAAFLWGLIGPLSRMAFQEGLTPLTVAFYRALLSWIFFLAHAARTGGLRVAPRDLPVFPLFGLLGVALFYGAYQLAVLYGGAALASVLLYTAPAWVALLSWAFLREPPTARSWGAVALTLLGVGLLGLGGGSEVRFGVRAFLFGLASGFFYALHYLLGKLYLGRYATPTFFAYALPVAALALAPWAEFGPLTPRALGALLALSLFSTYGAYLAFYAGLRRLPATVASVVATLEPVVAVVLAYLLFGEVLSPLGYFGALLVILAVLLAVRR”, the protein production is reported as “failed”.
For “MGYNTIPAGKDLPNDIYVAIEIPANASPIKYEIDKDMDALLVDRFMATPMFYPANYGYINNTLADDGDALDVLVITPYPVAPGSVIRARPVGVLKMSDEAGGDEKLLAVPHEKLTQLYNDIHDIDDVPQLLKDQIVHFFEHYKDLEKGKWVKVEGWENADAARAAIVKSAAAYKG”, the protein production was “not failed”.
In the case of “MGYRNLQDCVFDLEARGDLVRIDVETDPNIEIGAIQRRVYQAGGPALLFTRVKGCRFPMLGNLFGTMARTKFIFRDTLDDIRRLVELKINPTAVLKNPKEYAGAPLAALRLLPRQVSRGPILGHRTTIAELPQLKSWPMDGGPFVTLPQVYSESPKRPGFRFSNLGMYRVQLAGNDYRLNEEVGVHYQIHRGIGVHHAEAIERGEPLRVNIFVGGAPSMTVAAVMPLPEGLPELSFAGLLAGHRLAMVCRRGELPMPAEADFVITGTIDPNKTLPEGPFGDHLGYYSLAHPFPVLRVENVWHRDDAIWPFTSVGRPPQEDTTFGAFIHELTGALIPEVLPGVKGVHAVDAAGVHPLLLAVGSERYVPYEAERVPRELLTIASAILGNGQLSLAKYLFITPNEDNPPDIHHIDEFLTFILERADWRRDLHFHTRTTIDTLDYSGSGLNEGSKVIVAAAGPKRRDLPTEVPGGLRLPDGFTTPHVCLPGILAVTGPAFPGYGDNGAPDMERFCASFAPDDPINRFPLVVIVDDSAFTSRTLNNFLWVTFTRSNPAADIHGIGSSVRCKHWGCGGALVIDARVKPHHAPPLLDVPEIERRVDALGAPGGPLRGII”, the protein production is reported as “failed”.
For “MGYSRSREIRRWEMRKMKAAGLSVEEAYSDEEGGLVPDLVYKESSSEFLGNKVFDPVLRNKIEIEKPGTEISAVAKRGSVFLSVHPRSYVAPSASGEVDREVSQRLPIESFRDDLMEFVGKHRVIVLVGETGSGKSTQVPKYLYQEGYGDKGIIGCTQPRRAAAISLASTLKREMGCAVGYSIRFDSTTTQDTKIRYMTEGILLQELLADKMLRRYSVVILDEAHERTTNLDISMGLLKLALKERDDLRIIIMSATIEAQKLCNYFGCPAFNIEGRSYPVETRYLSVNVDDYVEWTVKKILYIHENCGEGDILVFVTGRDDVEGVVGIVNHCIRNKCFGEGSEGGRGLKVLPFYSQLPEEMQNRVFQAEKDVRKCIVSTNVAETSLTIPNIGYVIDTGLQKISVYSYDTGESLVTVPISRANADQRTGRAGRTRPGVCYRMYTADTYENDMLPSPVPEIQRTNIHNVVLLLLKHGVHDILGFDFVDRPSEELIQGALLGLHRLGAVCSRGLLTKVGKEMSELRLDPPLARMVLGAAGYGAVNEIASIASMLSVHEVFHRDFDKSSPLCHQGCDFLTLLNIFNAFIRQKNRSEWCNKMKVSEHALKRATETKRAVLMSLREMGVPISSTRSLDKIQRCIISSVHYNVARRRGKGYVCLSNFRACMVHPSSVLADSYSQYIIFYKHLSTRAEYMYCCSNISPQVILEEAGCYYRDRNGVFNIQKHPVIEDGLDREHNPFGSACSLTGARMPGKIALDENLYDRFEKWNESEESDEEPPKKIRRTRI”, the protein production was “failed”.
With “MHAKFLDTLDWGILIAYFLILIAIGIWASSKRKKGSSLFLAEHSLRWHHIGFSMWGTNVGPSMLIASASAGFTTGIVSGNYAWYAFVFICLLAFVFAPRYLGSRVSTLPEFMGKRFGQSTRNILAWYTIVTILISWLALTLFAGGVLIRQVFDIPMWQSALILLIISAFFTMLGGLKAVAYTNVYQMILLILVSAALAIVGIYKVGGISALTDAVPADFWNLFRPNDDTAFPWLPIILGYPVMGVWFWCTDQSMVQPVLAAKSLKEGQLGTNFTGWLKILDVPLYILPGIICLALFPQLENPDEAYMTMVTHLFPVGMVGLVLAVLTAALVSTIGSALNALSTVFTMDIYVKKIRPQAKQKEIIRVGQVVTVAGALISVIITIAIDSIHGLNLFNVFQSVLGFIAPPMAAVFLFGVFWKRTTTLAANAALTVGTVFSIGVGVLYLWVFPADQYSAWPHFMLLSFYLFVIIGIGMVVVGLLDKTPQTAILNMEKIEEKPARIVLILWGLLIVTMIGLYIFFNGH” the protein production was “failed”.
With “MHALIVVAHHHPRSLTHALAARIAEGVVRAGHSAETADLAAEGFEPRFGLADHAVHRGQASPPADVLAEQARIDRADTLVLVYPIYWWSMPALLKGWIDRVFSNGWAFDYSIGGDLRKKLQRLRVVLVGVGGADAGTFERHGYAGAMRTQIDHGIFDYCGARVVRSELLLESESADPIRHLDQALHIGSQLFAARGAQGAAQAQPLEA” the protein production was “failed”.
For “MHATQAILQGLRPVWTRPARLILTTPMSTTPPVPSPLQRGTLKQRRNTLPKRSNRHRDGRVYYANLAATMIARDNLRAAQIILAESHRRHPAFCDTRLMEAGVHLSLGRSDAAEAALRICHEAEPDEQRAVSGLVEIALERADATTARQLLEDQPQTPTFDLARARIALFNGDPSAARTFLDAHPAEGSTTVLAAFADAMEGDLDTAIARLNAQANRTDAALALAALQAAAGVVPDAAPSSPTASFFTALNPAANDDRRAALNAAEGFEQGFTAAGLDAVPQGSPDLALGVVFRLWGFHGAALERLVAASNDDPENPLAAYFVAVAHLKLGQNAQAEAALAKARTAAPSFFAANIAAAELRIRAGAPQEALAMLKAAVAVREDPGALMRIGLIEESFGDDDTARAAYERFVAVQPGSYIGYNQLAWHLARRGIELDRAQELAERANTLQPENASVLDTLGWIAFLRGDGAGAIERLRAAHEISQGDIPIISFHLAQAELKYGETPRGIALLQDLTAAGPAAYPFSQEATDILAKALQ”, the protein production was “failed”.
